Measured values taken from the supplement of paper PMC12636428.

Test system: Saccharomyces cerevisiae
Assay: transcriptional activation domain activity (GFP:mCherry ratio, weighted mean of sorted bins, harmonized to initial dataset scale) (arbitrary fluorescence ratio units); higher = stronger transcriptional activation
Details: beta-estradiol 1 µM; induction time 4 h
Procedure, shortened: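 Each value is an activation activity: the read-weighted mean of bin median fluorescence, averaged across barcodes, then mapped linearly to the initial dataset scale. The tiles, fused to an estradiol-inducible synthetic transcription factor, sat at the yeast URA3 locus in GFP-reporter diploids. Cells spent 4 hours at 30 °C in SC with 1 uM beta-estradiol before sorting into 8 GFP:mCherry bins, and tiles below 50 reads were removed.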

Sequence | transcriptional activation domain activity
RRERKERKRARKEKDRRKRRHRRSQTDSDEEDRERHRDSRRKRSRSASRERRE | 20000
ANQCGEVDMLSRILLIVVTYLVILRRYRDALDIIERQALPMTLALGRPLWIGR | 62400
GRKILNVFALVFFFINLFLFCLFLALTMCRYAMFPRLWGLMLRDPVQSLYLGC | 46700
KPPCVWCRAVGTAASMLSNLLANGLLAFQCHMGWSIVYIAALLCIIYATTLSL | 38300
LALIRGGSHVGQVTFDRHSIASEGVVWCLAVKFKGVTLNLSWSEAVYRWFHVL | 57300
ERAVVGLLRICLILATRPSLRDQIFVSFDLLAGLPPAIANAVAEQVVAGLILV | 35700
MFTLPSYSLFLSVHSFLIYPLPSCSFFFRISSPSIFTLSSCLSFPPVCPSLLF | 71700
VYPENYETASVNTERDMELLVGHFDFMAKEAFLADSISLCSTEEELERRLDTP | 102000
ILENKGLNEDLSSHIYEKEAPKFDSDIDISRFGTNDAVIFNNDGWDTSLPIDF | 102000
RKPEAAAEKAAEAPEAAGGEGTRRRASGRGRGRGRNGRGGRSARAGEEKKDET | 29500
RVLNLTIHCAIWVRLYASLAWQKFADTLVHLELQFFTSSVLRAIPQNVCCRHL | 38100
MALHALLHLLNVYYQGCLPYNVLVITVCTMLYKLFFSKSFYCRFRRFGRPWYL | 54300
RAGASPEEASAQSGGSRSKEAEESGSSPTGGEVGKSGGKNSSSSKSVEEKSKD | 29700
MKIHECTGVVYIGNVLCHKQPQVLLGLMFFMDLTLFFLDSYLWYIICNTIFSV | 68700
CYNLNLVFNWIIRCIISIFLVFMISFLPLFLQELVECGTWKAIWCLMKQFTSL | 35400
GFFFAIACLFICQGWMLGGDQSIKSISLGGGFLCLFFFSLFSFLFASWCVWLC | 38700
NASPAAVVATTATATPERAVSAAAGDNNASTLTKRGRGRPRKAAKHTQAQTQA | 36500
IAHRYLVGYVYVRTHSQTGGLVYIWLLKRLGSLLSLQPILLGLIFLSRHLWIE | 55000
LKSKSVVSSRTAEEKKEISGALGEGMLQQLVVLLGQVPRIILLILKTNDLTRS | 52200
QTIPKNQFASRVWTYMDPEVSRHLIDHYLGSIDLSRLELAVLALKCLYSRHTT | 53900
FLCIFFLSLFFYTFSISYLYVWCLPPPPRRQTCLPTLTFISLPFVSALFLSFG | 59100

Sequence | transcriptional activation domain activity
EGAAAPAPAAAEKKEEPKKAETPKAEAPKAEAPKETSSRADAAKPAAAPKAAA | 39400
MNLYLLCRYMTLVYCFVYMLGNNITKFDCEVWVKALLSFGYIASILSSSLIVL | 61200
MDEEADEKGGKRRTSRACDGCRRRKIRCIASGEANSSEKAPCVNCAQSKLSCT | 27500
LFYFTFSFFVRTAFITLPIYLFWFLYSYFWNYWTSYFPWNDLFLPAWPISRTR | 39300
MSKRLSFFFSGYLVLCGFSGVAFLFYFSLFNLVYYYPFLLLFNGFGGICIFLV | 56800
FLRLFCFAFIMLVGILPTQAYVVYADVKLSMPWHAYSWSNMHGPSWHTVNMVP | 51400
GRRGSKAVPGEVSEAEANGDAPQTEATPAPESDDAAKPKKKKKSKAARKAKKA | 36100
KRRGDQGKEQDRKGGEGGEEERGNGARGGGSARKEGDKGGEQKEGGRQRERAG | 41700
VGEWMGGGVGCLAAWLGHGIRIFGGTEYWLVPEFFFPLFLFFSFPPWSLVLFC | 74100
PLWLAPNLVTLLGFFCILFNIFLLVILVPDLVGPGPSWLYYSFGLGVWMYSTM | 68600
RIRDFMQFTLAATKTHYKLLPDILFKADPELCRRVSDANPSCALAALLTLYAH | 77500
MWLIWLIWLLALLVDLFSFSVLFFFSLSLFLSFFWFFFFSFFQSFFPFLAVSF | 66900
MHCSLPSGLSFGCQYALVHLLFVRRISIWGLLILQIFLGTRVFYHVFILRVVR | 62700
MDPSTRRRVTNIGPLDKRRTLRRCEQCRISRTKCEGGRPCHACRARLVGCRDQ | 41700
SKQAGVGGEDEGEEDVPEDFGHSDNIRKKLLEVLGRDRRDRVLSSLYIVRADG | 43800
CPSFPSSFFVWVFEPRVAVPNLLGIIYLFCLVSHLPSSLFILSGTLLPLIVCL | 61300
MHILFLSLFFCFTLRFSLILLFGVIWLVKAFKYCHLVYWKLITYFNLLIFALY | 54800
FPTVLVYYLLFAIGRLCTIMLYAALETCLAFMNHFPLFAMMLRLKDPARLPGG | 61800
FNEFYPSGWPPSYFIVILRMLFLVCGLFFLWSFFFVVFFFCGLLSLLFFILVV | 28500
NNTTSLGNAYGVCVMFVTFFDSCMVSLAALIVWRLPYYVVFLPWLVFACLDGV | 52100
EAAAGSVKNEAGESSASSAARGGRGGRRGGGGPGSRGGKVGRGRGGRAGASQE | 32500

Sequence | transcriptional activation domain activity
MVLVLLWTVEPFIFLFNLLLLILLMVWLPLILLFKLLFLNNITFLSFMIPNQL | 45000
ALDSEQRRKGMSKPAPKKRGRKPNPNKKPKPPRDPNEPPKKRGRKPNPNKKVT | 42300
MKLVCHSLQLHFLSILVLEDLLIATLRVAQSCITAFFWRNHFSFTCLCLLTML | 63200
GSMGKVKLGVSSISGEKVAIKIIPRFTSTAAAHRPPPPTPSNEPSGSSRRPSS | 7050
MYYCLFSFLFFLFAFPCVFLLLFTVFFSPYFFFAGFFFYLSLSLLVCVWTIDE | 41600
RLSASKIYIWCSGGVVFAIVLALQVLVLLALLNVITCLEGHMLSIHGWPRGEC | 31100
LNLGWRLMHFKVHFARIGVIVHGPQYGELTDWDCSSAHRGDILGFPKAQLLFE | 25100
ETIHGPAPATSFDDTNFTWQLFDESPGFDPLAQLQSFSDFGLSGHDLLFGFMD | 123000
TDAGPGEEDEEVVHEVRAKALRHVPVKPDDDADSKKKNNSPWQPEGLGPLRIL | 34200
CIIFPHPFFSYSFFSFSPLFFFFFPSFLSFLSFLPSFLFFFSIVTPSSSSSTY | 55100
WYAPDAGGSVYDYITLTAGLDALNCAQKVRISPLLIVLLRNFAVRCLLSKGSL | 52300
GREANDAAQKQRKREGARAARDGNRSAKEGNGRQDAGSRKKAGDGEGGGAERG | 20600
ESKDKSKEGKSKRGDKTLDTKGKSEEENKKGGDKKDEKKKDEKKKEEEEKEKA | 25400
FFLKVYLLNPMHMTRFADLLYQGAILNRVFQPYESHLQYLLQWMCDYNLYGCA | 46700
IYVIGCQPRFKTKLVEDKAEKRKCRIVLVPIFSETGVLVLLNIRTLEVRTVRF | 51700
LSSFFLGLLHIGFSLVGYLSLLRISPNVFSVLPRDHTWFNISRFLVLCTILPL | 59300
EQPSAPAAAANSEEPDNKEAEKTETGAAAENKEAVANNGSESAEKEPAETSAS | 23500
CLIVARVVTVVFPFNFCFYFFVERILISVPVVCVCEVCVLEWCVWLRFLFACA | 32000
MAEEQPAKPKKHRAAKPKVSTGCVTCKQRRIKCGEEKPHCMRCVKTGRECGGY | 41800
MLPTLRMLLGLICIAFLNRHCYGYSSRQMPMFAEAACFRIAHVLSPASAVYYP | 59700
LVRQEDLINIAFHFVAKIPCTWPLPLRKAIADLHHYGGLHVGCTVSALFWYIL | 45300

Sequence | transcriptional activation domain activity
RRAVRPADADEREAVARVRPRARRRLGDVRDELDPRRGRRRVHGRIWGGVVRL | 68000
KSGCGYILGHINIFQPINWILVTSSKVFPIDYILFLLLVMFFFSASIVGIATV | 34400
GHFVRVGTTFFTMYAVNIFLSYARYIAAHFRISVIVISRLMLNLRNPVTFEST | 60400
ICYVSLCVVISMCDLLVLWRCWVIWTALDHHLAYLVTFVPVIMLLSSFVMGTF | 44100
EDDDGKGNKQKTSEKRKLQNRQAQRNFRERKEKVSCPSSPAAPRASQGTRGSC | 23900
MHDTWFPFLAIVLLFYPTILGPGTFSIYFPHSALPPYMSLHLYVHARFLLLLL | 65800
MPHLCVSVCLFLVLVMKRWLHVCRDIICRSLSWPEYEFSHFCSLIMRVLMLLL | 76300
KISVCWLWGLDSLHLAFCIYMMYWYLITNFCVVAELGCFNIQTFFASKAFVIL | 49800
MVIMYKFVFYTGFDRFVFFFWDFFFFFFFFCMLSMGYFSYFIFILSLLESVLV | 26200
AKEDEGEKGKNKDKSKKEEEKKEEGEKKEEGEVKGVKEVEELKVEQPKEEVKL | 17700
ILLGLLVLVLLYANVVLIIYHEPTFRRPLDMAFIHAPIRLFFILPFGVLFWYS | 63100
MLLLLITHIGIAILFVCWNPRFSCPNQSPDQQGTCRLFNMYILISSWIIPAFL | 55600
MAQVAVFLVHKVLYGIIPLFEIQTCAYFPLLVSLWHLNYMLFYVVMFMRLIIL | 45300
LFSCCCLLRTLGRFLLFIIFFPSLSTCSFFYFLVLFLFSFQTYFLLYLYLLSI | 43800
TDRGGRRGKDYDPADRRHRRRGSSSSSDDRRRSRSRSKSRTRKAAETAAVAGV | 59200
MLLLPYAVFCIISFFHSFLFFLLLGGWLGCIFYLRVVHMHWLVRWFVWLVHGG | 65300
LNTFLDSFIFQLFPMVADLWIAAAYFFLYFDAFYSLIIIATTWLYIYITIYMA | 58800
SAAAAAPVAAAAAPAAASSIAPAVVGGAVGAAAIGGGAAIAASSDKAAAAAAA | 37700
SLLQHLAEYFICFDSVVSFLLTLVVNVFRLTSFGIIRLVGWRPVVFFFFPSIY | 50900
SKRREIRKTKEARREGSERRDGEADSEEKAREGKGSKRRRRGTGRRAEEAAKG | 27400
